In article PMC9076019, “HSP90 N‐terminal inhibitors target oncoprotein MORC2 for autophagic degradation and suppress MORC2‐driven breast cancer progression” (Clinical and Translational Medicine, 2022):

B1: Full-length Flag-MORC2 (natural protein, human, UniProt Q9Y6X9-1 1-1032, looked up)
chain: MAFTNYSSLNRAQLTFEYLHTNSTTHEFLFGALAELVDNARDADATRIDIYAERREDLRGGFMLCFLDDGAGMDPSDAASVIQFGKSAKRTPESTQIGQYGNGLKSGSMRIGKDFILFTKKEDTMTCLFLSRTFHEEEGIDEVIVPLPTWNARTREPVTDNVEKFAIETELIYKYSPFRTEEEVMTQFMKIPGDSGTLVIIFNLKLMDNGEPELDIISNPRDIQMAETSPEGTKPERRSFRAYAAVLYIDPRMRIFIHGHKVQTKRLSCCLYKPRMYKYTSSRFKTRAEQEVKKAEHVARIAEEKAREAESKARTLEVRLGGDLTRDSRVMLRQVQNRAITLRREADVKKRIKEAKQRALKEPKELNFVFGVNIEHRDLDGMFIYNCSRLIKMYEKVGPQLEGGMACGGVVGVVDVPYLVLEPTHNKQDFADAKEYRHLLRAMGEHLAQYWKDIAIAQRGIIKFWDEFGYLSANWNQPPSSELRYKRRRAMEIPTTIQCDLCLKWRTLPFQLSSVEKDYPDTWVCSMNPDPEQDRCEASEQKQKVPLGTFRKDMKTQEEKQKQLTEKIRQQQEKLEALQKTTPIRSQADLKKLPLEVTTRPSTEEPVRRPQRPRSPPLPAVIRNAPSRPPSLPTPRPASQPRKAPVISSTPKLPALAAREEASTSRLLQPPEAPRKPANTLVKTASRPAPLVQQLSPSLLPNSKSPREVPSPKVIKTPVVKKTESPIKLSPATPSRKRSVAVSDEEEVEEEAERRKERCKRGRFVVKEEKKDSNELSDSAGEEDSADLKRAQKDKGLHVEVRVNREWYTGRVTAVEVGKHVVRWKVKFDYVPTDTTPRDRWVEKGSEDVRLMKPPSPEHQSLDTQQEGGEEEVGPVAQQAIAVAEPSTSECLRIEPDTTALSTNHETIDLLVQILRNCLRYFLPPSFPISKKQLSAMNSDELISFPLKEYFKQYEVGLQNLCNSYQSRADSRAKASEESLRTSERKLRETEEKLQKLRTNIVALLQKVQEDIDINTDDELDAYIEDLITKGD
notes: MORC2, human, full length (residues 1-1032); source: HEK293T, transfected, in cytosolic and nuclear fractions
B2: MORC family CW-type zinc finger 2 (MORC2) (natural protein, human (endogenous in MCF-7 and T47D), UniProt Q9Y6X9 1-1032, looked up)
chain: B1 chain
notes: MORC2, human, endogenous in breast cancer cells; source: endogenous, MCF-7 and T47D lysates

Assays:
[1] = target: the molecule itself; assay: cross-linking; nuclear fraction of HEK293T cells transfected with Flag-MORC2 (48 h); chemical cross-linking with 0.05% glutaraldehyde on ice for 5 min; immunoblotting
[2] = target: the molecule itself; assay: cross-linking; endogenous MORC2; total lysates (NP40 buffer) of MCF-7 and T47D cells treated with DMSO, 1 μM 17-AAG, AUY922, STA-9090 or 10 μM NB for 12 h; 0.05% glutaraldehyde on ice for 5 min; immunoblotting

Protein | stoichiometry N [1] | stoichiometry N [2]
B1 | 2 | –
B2 | – | 2
